The text below walks through data of patent publication EP0562624A2, “Stabilization of functional proteins” (Modrovich, Ivan E., priority 1992, dated 1993).

The series is described as follows: Stability of HRP in uric acid single reagent solution. Type of series: physicochemical. The note with it: Uric Acid SR Model. The method, then: As in Example 2 Horseradish Peroxidase (HRP) was dissolved in an aqueous base containing 50 mg/ml BSA and 10 mg/ml Tris with no pH adjustment. HRP concentration was 30 mg/ml.
EDAC and PSL solutions were formed as in Example 2 as in relative concentrations of 100 mg/ml and 20 mg/ml. The PSL solution was added in an amount of 0.14 ml per 0.5ml of HRP solution dropwise over an ice bath. This was followed by the addition of the EDAC solution in an amount of 0.05 ml per 0.5 ml of HRP solution. The mixture was stored at 4°C for 4 days and evaluated for the stability of HRP in a uric acid single reagent solution.
This is reported in Table 4 where the Control 4 is the unmodified horseradish peroxidase.

For “Example 4: Horseradish Peroxidase (HRP) stabilized with PSL and EDAC”, the “%HRP of 4°C” value is reported as 100% (1 day at 4°C), 70% (1 day at 41°C), 100% (3 days at 4°C) and 35% (3 days at 41°C).
